Reference: the nanobody polyreactivity screen of Harvey et al. (2022)

assay: yeast display, Sf9 membrane polyspecificity reagent, FACS + sequencing; frameworks hold sequencing errors
Procedure, shortened: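 Genes from sorted yeast were amplified by colony PCR, read by MiSeq 2 × 250 sequencing and filtered on CDR length. These cells carried a synthetic nanobody library in Saccharomyces cerevisiae BJ5465 and were sorted by FACS into low and high (top ~1%) gates on anti-HA and streptavidin fluorescence. Polyreactivity is labelled according to the gate of origin.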

Row | Sequence | polyreactivity (PSR sort gate)
1 | QVQLVESGGGLVQAGGSLRLSCAASGYIFQVNAMGWYRQAPGKERELVASISCGGSTNYADSVKGRFTISRDNAKNTVYLQMNSLKPEDTAVYYCAAELGYPYLQYVYWSQYLYDYWGQGTQVTVSS | low polyreactivity
2 | QVQLVESGAGLVQAGGILLLSSAASGRIFLFYSLGWSRQEPGKERELVAAISVRGGSTYYADSVKGRITISRDNAKNTVFLQMNSLKPEDTAVYYCNAPNYRSRFDYWGQGTQVTVSS | high polyreactivity
3 | QVQLVESGGGLVQAGGSLRLSCAASGSTFEYNAMGWYRQAPGKERELVASSTNYADSVKGRFTISRDNAKNTVYFQMNSLKPEDTAVYYCAREQGVNRNNDYWGQGTQVTVSS | low polyreactivity
4 | QVQLVESGGGLVQAGGSLRLSCAASGSIFTYYAMGRYRQAPGKDRQLVAAISSNGGSTYYADSVKGRFTISRDNAKNTVYLQMNSLKPEDTAVYYCATVVNTWYQNGYEYWGQGTQVTVSS | low polyreactivity
5 | QVQLVESGGGLVQAGGSLRLSCAASGRIFQRYMGWYRQAPGKERELVAAISRRGGSTYYADSVKARFTISRDNAKNTVYLQMNSLKPEDTAVYYWNAVNVLAPSRGRRYDYWGQGTQVTVSS | high polyreactivity
6 | QVQLVESGGGLVQAGGSLRLSCAASGFTFVRYAMGWYRKAPGKERELVAAISGSGDRTYYADSVKGRFTISRDNAKNTVYLQMNSLKPEDTAVYYCAKKSLGARHTGRYNYWGQGTQVTVSS | high polyreactivity
7 | QVQLVESGGGLVQAGGSLRLSCAPSGSIFKYNTMGWYRQEPGKERELVATISGGGRTYYADSVKGRFTISRDNAKNTDYLQMNSLKPVDTAVYYCAARKRGNFTYDYWGQGTQVTVSS | high polyreactivity
8 | QVHLVESGGGLVQAGGSLRLSCAASGSTFYANAMGWYRQAPGTERELVAAITSGGSTNYADSVKGRFTISRDNAKNTFYLQMNSLKPEDTAVYYCAADGGDQERGDYWGQGTQVTVSS | low polyreactivity
9 | QVQLVESGGGLVQAGGSLRVSCAASGRTFKYYARGWYRQAPGKARELVAAISGSGGSTYYADSVKGRFTISRDNAKNTVYLQMNSLKPEDTAVYYCAAAGKETSRNAYDSWGQGTQETVSS | high polyreactivity
10 | QVQLVESGGGLVQAGRSLRLSCAASGFTFGYYAMGWYRQPPGKERELVAAISWNGGRTYYADSVKGRFTISRDNAKNTVYLQMISLKPEDTAVYYCAADYRFYSPTQYTYDYWGQGTQVTVSS | high polyreactivity
11 | QVQLVESGGGLVQAGGSLRLSCAASGSIFFAYDMGWYRQAPGKERELVAAINFDGTSTYYADSVKGRFTISRDNAKNTVYLQMNTLKPEDTAVYYCNKRVSPTYKGQYVYWGQGTQVTVSS | low polyreactivity
12 | QVQLVESGGVLVHAGGILRLSCAASGSTIVRYAMGWYRQAPGKERELVAAKSSRGGSTYYADSVKGRFTITRDNAKNTVYLQMNILKPEDTGVYYCSAAPPGTIAYRVGSWGQGTQVTVSS | high polyreactivity
13 | QVQLVESGGGLVQEGGSLSLICAASGRIYTPYAMGSYRQAPGKERELVAVIRDGSTYYADSVKGRFTISRDNAKNTVYLQMNSLKPADTAVYDCRYDIWVWWSGAYDYWGQCTQVTVSS | low polyreactivity
14 | QVQLVESGGGLVQAGGSLRLSFAASGFTFYRYAMGWYRQAPGKERELVAAISGDGGSTYYAASVKGRFTISRDNAKNTVYLQMNSLKPEDTAVYYCNKYFWQYLYGYWGQGTQVTVSS | high polyreactivity
15 | QVQLVESGGGLVQAGGSLRLSCAASGRIFSSYAMGWYRKAPGKERELVAAIRRGGGSTSYADSVKGRFTISRDNAKNTVYLQMNSLKPEDTAVYYCAADSPRGQVHYIGGYWGQGTQVTVSS | low polyreactivity
16 | QVQLVESGGGLVQAGGSLRLSCAASGITFTDYAMGWYRQAPGKERELVAAISSSGGRTYYADSVKGRFTISRDNAKNTVYLQMNSLKPEDTAVYYCAARDYDRTQSGRDYWGQGTQVTVSS | high polyreactivity
17 | QVQLVESGGGLVQAGGSLRLSCAASGFTFVRYAMGWYRQAPGKERELVAVISRSGGSTNYADSVKGRFTISRDNAKNTVYLQMNSLKAEDTAVYYCNVVVKGAWDYYPYDYWGQGTQVTVSS | high polyreactivity
18 | QVQLVESGGGLVQAGGSLRLSCAASGSTFDKYTMGWYRQAPGKDRELVAAISWSGGSTYASSVKGRFTMSRDNAKNTVYLQMTCLKPEDTAVYSCAARYRNYDLWLGNRRGSYYSWGQGTQVTVSS | high polyreactivity
19 | QVQLEESGGGLVQAGGSLRLTCAASGRIFFQNTIGWYRQAPGQERELVAAITSDGSTYYADSVKGRFTISRDNAKNTVYLQMNSLKPEDTAVYYCAAEISYRWWYKLGFTSFDYWGQGTQVTVSS | low polyreactivity
20 | QVQLVESGVGLVQAGGSLRLSCAASGFIFPTYAMGWYRQAPGKEREFVASITRRGGSTYYADSVKGRFTISRDNAKNSVYLQMNSLKPEDTAVYYCAAGYYGFRGGGSDYWGQGTQVTVSS | high polyreactivity
21 | QVQLEESGGGLVQAGGSLRLSCAASGSICGVYVMGWYRQAPGKERELVASISRGTTTNYADSVKGRFTISRDNAKNTVYLQMNSLKPEDTAVYYCNADIRGFFFQYDYWGQGTQVTVSS | low polyreactivity
22 | QVQLVESGGGLVQAGGRLRLSCAASGRTIPYYAMGWSRQSPGKDREFVAAISGGGGSTHYADSVKGRFTISRDNAKNTVYLQMNSLKPEDTAVYYCNADKYSVYGEHPYDYWGQGSQVTVSS | low polyreactivity

Row | Sequence | polyreactivity (PSR sort gate)
23 | QVQLVESGGGLFQEGGSLRLSCAASGSIFEPYVMGWYRQAPGKESELVAAIRQTGGSTYYADSVKGRFTISRDNAKNTVYLQMNSLKPEDTAVYYCNAEQNPSGLYDYRGVEGEMGYWGQGTQVTVSS | low polyreactivity
24 | QVQLVESGGGLVQAGGSLRLSCAASGSTFGYYARGWYRQAPGKERELVAAISWSGTRTYYADSVKGRFTISRDNATNTVYLQMNSLKPEDTAVYYCAVRISRPRVYYYWGQGTQVTVSS | high polyreactivity
25 | QVQLVESGGGLVQAGGSLRLSCAASGSIFAVYTMGWYRQAPGKEREFVAAITKSGGRTYYADSVKGRFTISRDNAKNTVYLQMNSLNPEDTAFYYCARRRTIPYTLVDYDSWGQGTQVTVSS | low polyreactivity
26 | QVQLVESGGGLVQAGGSLPLSCAASGRTFRRYGMGWYSNAHGKERELVAGISGYGTTNYADSVKGRFTISRDNAKNTVYLQMNSLKPEDSAVYYCAAGRPYYYTYSGLYYWGQGTQVTVSS | high polyreactivity
27 | QVQLVESGGGLVQAGGSLRLSCAASGSTFGHYAMGWYRQAPGKERELVAAITRRGGSTYYADSVKGRFTISRDNAKNTVYLQMNSLKPEDTAVYYCATDKHYVYYSSHMGYWGQGTQVTVSS | high polyreactivity
28 | QVQLVESGGGLVQAGGSLRLSCAASGFTFAVYVMGWYRQAPGKERELVATISISVGSTYYADSVKGRFTISRDNAKNTVYLQMNSLKPEDTAVYYCNADPPPEYYPDKDNYWGQGTQVTVSS | low polyreactivity
29 | QVQLVESGGGLVQAGGSLRLSCAASGRTFLIYAMGWYRQAPGKERELVAAITSGGRTKYADSVKGRFTISRDNAKNTVYLQMNSLKPEDTAVYYCAAESNRLRYYYWGQGTQVTVSS | high polyreactivity
30 | QVQLVESGGRLVQAGGRLRLSCAASGNIFYGYAMGWYRQAPGKERELVARINWSGSRTYYADTVKGRFTISRDNAKNTVYLQMNSLNPEDTAVYYCNTSTSRVPGNGDYWGQGTQVTVSS | high polyreactivity
31 | QVQLVESGGGLVQAGGSLRLSCAASGRTYTGYGMGWSRQAPGKERELVAAITWRGDRTYYADSVKGRFTISRDNAKNTVYLQMNSLKPEDTAVYYCNKLGRIQYDYWGQGTQVTVSS | high polyreactivity
32 | QVQHVESRGGLVQAGGSLRLSCAASGLILSGYTMGWYRQAPGKERELVAAISRSGGSTYYADSVKGRFTISRDNAKNTVYLQMNSLKPEDTAVYYCAKVPIYRYGVWAMNYWGQGTLVTVSS | high polyreactivity
33 | QVQLVESGGGLVQAGGSLRLSCAASGLTFWYYAMGRYRHAPRKERELVATITWSGRTYYADSVKGRFTISRDNAKNTVYLQMNSLKTEDTAVYYCNAVKGRLQYSYDYWGQGTQVTVSS | high polyreactivity
34 | QVQLVESGGGLVQAGGSLRLSCAASGITFKYYVMGWYRQAPGKERELVARITRRSGSTYYADSVKGRFTISRDNAKNTVYLQMNSLKPEDTAVYYCAASPHSRSDYGYWGQGTQVTVSS | high polyreactivity
35 | QVQLVESGGGLVQAGGSLRLSCAASGSTFARYAMGWYRQAPGKERELVAAISRRGGSTYYADSVKGRFTISRDNAKNTVYLQINSLKPEDTAVYYCAARYGIITSFEYDYWGQGTQVTVSS | high polyreactivity
36 | QVQLVESGGGLVQAGGSLRLSCAASGFIFASYAMGWYRQAPWKERELVAAISYRGGTTYYADSVKGRFTISRDNAKNTVYLQMNSLKPEDTAVYYCAADSPENRYNDWGQGTQVTVSS | high polyreactivity
37 | QVQLVESGGGLVQAGGSLRLSCAASCRIFSYYVMGWYRQAPGKERELVAAISYRGGGTYYADSVKGRFTISRDNAKNNFYLQMNSLKPEDTAVYYCNADTYSNTYRAYDYWGQGTQVTVSS | low polyreactivity
38 | QVQLVESGGGLFQAGGSLRLSCAASGRIFRGYAMGWYRQAPGKERELVAAIDRVGRTKYADSVKGRFTISRDNAKNTVYLHMNSLKPEDTAVYYCAAKASRVDWGYGYWGQGTQVTVSA | high polyreactivity
39 | QVQLVDSGGGLVQAGGSLRLTCDASGFIILYYAMRWYRQEPGKERELVADISRGADTKYADSVKGRFTISRDNAKNTVYLQMNSLKPEDTAVYYCATDITTFCFPYPGVELGYWGQGTQVTVSS | low polyreactivity
40 | QVQLVESGGGLVQAGGSLRLSCAASGRTFSGYAMGWYRQAPGKERELVAGITWNGGRTYYADSVKGRFTISRDNAKNTVSLQMNSLKPEDTAVYYCNKLGAVYPKYGYWGQGTQVTVSS | high polyreactivity
41 | QVQLVESGGGLVQAGGSLRLSCAASGGIIRTYARGWYRQAPGNETELVAAITTNAGSTYYADSVKGRFTISRDNAKNTVYLQMNSLKPEDTAVYYCAARWYYPYRTRYSASYGYWVQGTQVTVSS | high polyreactivity
42 | QVQLVESGGGLVQAGGSLRLSCAASGIIFYRYVMGWYRQAHGKERELVAAINNDGASTHYADSVKGRFTISRDNAKNTVYLQMNSLKPEDTAVYYCATRDSLYYRYWSNNYWGQGTQVTVSS | high polyreactivity
43 | QVQLVESRGGLVQAGGSLRLSCAASGLTFRYYAMGWYRQAPGKERELVAAITASVGSTYYADSVKGRFTISRDNAKNTVYLQMNSLKPEDTAVYYCAADSEQDNLRYYRWVWYYYWGQGTQVTVSS | low polyreactivity
